In US10865390B2, “Alcohol dehydrogenase mutant and application thereof in synthesis of diaryl chiral alcohols” (Jiangnan University, priority 2018, dated 2020):
Residue numbers refer to the chain shown, from its start. Names and notes keep the numbering of the source. Values joined by “and” are separate entries in the source; they are usually repeats but may differ in a detail not shown here. Identical values can stand only once.

B1: M6: alcohol dehydrogenase mutant E214G, S237C, Q136N, S196G, F161V of SEQ ID No. 2 (protein)
chain: MSVLISGASGYIAKHIVRVLLEQNYKVIGTVRSQDKADKLLKQYNNPNLSYEIVPEIANLDAFDDIFKKHGKEIKYVIHAASPVNFGAKDLEKDLVIPAINGTKNMFEAIKKYAPDTVERVVMTASYASIMTPHRNNDPTLTLDEETWNPVTEENAYENVVTAYCASKTFAEKEAWKFVKENSDAVKFKLTTIHPGFVFGPQNFDEDVTKKLNGTCEIINGLLHAPFDTKVEKTHFCQFIDVRDVAKTHVLGFQKDELINQRLLLCNGAFSQQDIVNVFNEDFPELKGQFPPEDKDTDLNKGVTGCKIDNEKTKKLLAFEFTPFHKTIHDTVYQILHKEGRV
modifications: Protein translated from synthetic DNA
B2: M7: alcohol dehydrogenase mutant E214V, T215S of SEQ ID No. 2 (protein)
chain: B1 chain with N136Q, V161F, G196S, G214V, T215S, C237S
modifications: Protein translated from synthetic DNA
B3: M1: alcohol dehydrogenase mutant: glycine for glutamic acid at position 214 (E214G) of SEQ ID No. 2 (protein)
chain: B1 chain with N136Q, V161F, G196S, C237S
modifications: Protein translated from synthetic DNA
B4: M2: alcohol dehydrogenase mutant: valine for glutamic acid at position 214 (E214V) of SEQ ID No. 2 (protein)
chain: B1 chain with N136Q, V161F, G196S, G214V, C237S
modifications: Protein translated from synthetic DNA
B5: M4: alcohol dehydrogenase mutant E214G, S237C, Q136N of SEQ ID No. 2 (protein)
chain: B1 chain with V161F, G196S
modifications: Protein translated from synthetic DNA
B6: M3: alcohol dehydrogenase mutant E214G, S237C of SEQ ID No. 2 (protein)
chain: B1 chain with N136Q, V161F, G196S
modifications: Protein translated from synthetic DNA
B7: M5: alcohol dehydrogenase mutant E214G, S237C, Q136N, S196G of SEQ ID No. 2 (protein)
chain: B1 chain with V161F
modifications: Protein translated from synthetic DNA

Assay: 20 mL biocatalytic system: asymmetric reduction of CPMK
Assay type: biochemical
Settings: 20 mL biocatalytic system, enzyme 10 g/L, 30° C., pH 7.5
Description: (§1) In an embodiment of the present disclosure, the (R)- and (S)-CPMA is chromatographed by taking 100 μL reaction solution, adding 500 μL ethyl acetate, shaking for 1-2 min, centrifuging at 12,000 rpm for 2-5 min, placing a supernatant into a centrifuge tube, and after an organic phase is naturally volatilized completely, adding 500 μL chromatographic pure ethanol for chiral liquid chromatography of a conversion rate and an ee value. The specific chromatographic conditions are as follows: Daicel Chiralcel OB-H (5 μm, 250 mm×4.6 mm) liquid chromatography column, mobile phases are n-hexane: ethanol: ethanolamine (90:10:0.01, v/v/v), the flow rate is 1 mL/min, the column temperature is 30° C., the UV detection wavelength is 254 nm, the injection volume is 10 μL, and the retention time for (R)-CPMA and that for (S)-CPMA are 11.14 min and 12.34 min respectively.
A 20 mL biocatalytic system was established: 100 mM potassium phosphate buffer (pH 7.0), and the alcohol dehydrogenase mutants M6 and M7 obtained in Example 2 as well as wild KpADH 10 g/L, CPMK 100 mM, 200 mM and 500 mM were added (substrate added in batches). […]

Molecule	ee value of final reduction product [%]
B1	99.5
B2	99.7

Same assay, conditions: CPMK 100 mM, reaction time 1 h

Molecule	Conversion rate [%]
B1	24.6
B2	34.0

Same assay, conditions: CPMK 100 mM, reaction time 2 h

Molecule	Conversion rate [%]
B1	54.6
B2	40.8

Same assay, conditions: CPMK 100 mM, reaction time 3 h

Molecule	Conversion rate [%]
B1	69.4
B2	41.5

Same assay, conditions: CPMK 100 mM, reaction time 4 h

Molecule	Conversion rate [%]
B1	80.2
B2	46.5

Same assay, conditions: CPMK 100 mM, reaction time 6 h

Molecule	Conversion rate [%]
B1	95.2
B2	58.7

Same assay, conditions: CPMK 100 mM, reaction time 8 h

Molecule	Conversion rate [%]
B1	97.2
B2	69.0

Same assay, conditions: CPMK 100 mM, reaction time 12 h

Molecule	Conversion rate [%]
B1	98.2
B2	99.7

Same assay, conditions: CPMK 100 mM, reaction time 24 h

Molecule	Conversion rate [%]
B1	99.6
B2	99.7

Same assay, conditions: CPMK 200 mM, reaction time 1 h

Molecule	Conversion rate [%]
B1	19.1
B2	20.9

Same assay, conditions: CPMK 200 mM, reaction time 2 h

Molecule	Conversion rate [%]
B1	36.4
B2	33.1

Same assay, conditions: CPMK 200 mM, reaction time 3 h

Molecule	Conversion rate [%]
B1	52.8
B2	48.1

Same assay, conditions: CPMK 200 mM, reaction time 4 h

Molecule	Conversion rate [%]
B1	70.6
B2	55.2

Same assay, conditions: CPMK 200 mM, reaction time 6 h

Molecule	Conversion rate [%]
B1	89.7
B2	77.4

Same assay, conditions: CPMK 200 mM, reaction time 8 h

Molecule	Conversion rate [%]
B1	92.2
B2	86.3

Same assay, conditions: CPMK 200 mM, reaction time 12 h

Molecule	Conversion rate [%]
B1	95.4
B2	92.2

Same assay, conditions: CPMK 200 mM, reaction time 24 h

Molecule	Conversion rate [%]
B1	99.2
B2	99.7

Same assay, conditions: CPMK 500 mM, reaction time 1 h

Molecule	Conversion rate [%]
B1	12.8
B2	10.8

Same assay, conditions: CPMK 500 mM, reaction time 2 h

Molecule	Conversion rate [%]
B1	22.1
B2	21.1

Same assay, conditions: CPMK 500 mM, reaction time 3 h

Molecule	Conversion rate [%]
B1	30.6
B2	38.7

Same assay, conditions: CPMK 500 mM, reaction time 4 h

Molecule	Conversion rate [%]
B1	65.3
B2	43.2

Same assay, conditions: CPMK 500 mM, reaction time 6 h

Molecule	Conversion rate [%]
B1	77.9
B2	62.1

Same assay, conditions: CPMK 500 mM, reaction time 8 h

Molecule	Conversion rate [%]
B1	87.6
B2	70.7

Same assay, conditions: CPMK 500 mM, reaction time 12 h

Molecule	Conversion rate [%]
B1	90.2
B2	89.9

Same assay, conditions: CPMK 500 mM, reaction time 24 h

Molecule	Conversion rate [%]
B1	99.5
B2	99.4

Same assay, conditions: CPMK concentration 200 mM

Molecule	time required to achieve a conversion rate close to 99.9% [h]
B1	24
B2	24

Assay: Substrate specificity: reduction of prochiral carbonyl compound (Table 2)
Assay type: biochemical
Settings: substrate drawing 1 (CPMK)
Source text: The reduction on prochiral carbonyl compounds by the alcohol dehydrogenase mutants obtained in Example 2 was studied, and the studied prochiral carbonyl compounds include (4-chlorophenyl)-(pyridin-2-yl)-methanone (CPMK), phenyl-(pyridin-2-yl)-methanone, (4-chlorophenyl)-(phenyl)-methanone, (4-bromophenyl)-(phenyl)-methanone, (4-fluorophenyl)-(pyridin-2-yl)-methanone, (4-methoxyphenyl)-(phenyl)-methanone, acetophenone, 4-chloroacetophenone and 2-(4-chlorophenyl)acetyl chloride.

Molecule	ee value of product [%]
B3	24.2
B4	92.3
B5	80.6
B6	65.4
B7	87.7

Same assay, conditions: substrate drawing 2

Molecule	ee value of product [%]
B1	6.81
B3	41.0
B4	30.6
B5	20.7
B6	36.5
B7	15.5
B2	11.9

Same assay, conditions: substrate drawing 3

Molecule	ee value of product [%]
B1	91.7
B3	63.2
B4	87.9
B5	38.6
B6	33.2
B7	62.0
B2	99.4

Same assay, conditions: substrate drawing 4

Molecule	ee value of product [%]
B3	49.3
B4	95.5
B5	66.5
B6	63.3
B7	70.9

Same assay, conditions: substrate drawing 5

Molecule	ee value of product [%]
B1	64.2
B3	7.51
B4	0.56
B5	49.1
B6	45.6
B7	59.5
B2	9.22

Same assay, conditions: substrate drawing 6

Molecule	ee value of product [%]
B3	42.7
B4	23.2
B5	82.6
B6	80.6
B7	81.7
B2	45.7

Same assay, conditions: substrate drawing 7

Molecule	ee value of product [%]
B1	95.3
B3	68.5
B4	45.3
B5	91.5
B6	95.3
B7	95.6
B2	51.3

Same assay, conditions: substrate drawing 8

Molecule	ee value of product [%]
B1	82.1
B3	86.3
B4	94.9
B5	57.7
B6	88.9
B7	49.1
B2	95.1

Same assay, conditions: substrate drawing 9

Molecule	ee value of product [%]
B3	94.5
B4	91.2
B5	99.3
B6	99.8
B7	99.9
B2	77.5

Assay: Stereoselectivity analysis of CPMK reduction (chiral liquid chromatography, Table 1)
Assay type: biochemical
Settings: product CPMA from CPMK
Description: as §1
Method for determining optical purity ee:
As: molar concentration of (S)-CPMA obtained by liquid chromatography; and AR: molar concentration of (R)-CPMA obtained by liquid chromatography.
The activity of KpADH at different substrate concentrations and coenzyme concentrations was determined, and a double reciprocal curve was made based on the reciprocal of activity and substrate concentration to calculate kinetic parameters.

Molecule	ee
B1	97.8% and 99.8%
B3	3.29%
B4	92.3%
B5	88.0%
B6	51.8%
B7	93.5%
